# Where two headings read alike, the source gives them in different places. Positions of bridges follow the written chain, without caps; N, C: chain ends. No end group written: not given here.
# Assays:
# [1] = system: primary cultures of hippocampal neurons and mixed cortical neurons; conditions: cited from earlier work
# Aβ42 [2] = molecular target: T1, Aβ42 (Homo sapiens, UniProt P05067); experiment: ELISA using CDR-based synthetic peptides: biotinylated Aβ42 added to peptide-coated plates; assay type: binding
# Method: ELISA analysis was carried out using MaxiSorp microtiter plates coated overnight with synthetic peptide at a concentration of 10 μg/ml in carbonate buffer. After washing, plates were blocked with PBS/2% BSA for 1 h at 37° C. After incubation and a washing step, biotinylated Aβ42 was added to each well. Plates were again incubated for 1 h at 37° C., washed, and reacted with an avidin-peroxidase conjugate diluted 1:500 (Pharmingen, San Jose, Calif., USA) followed by the ABTS single solution (Zymed) as described above.
# Aβ42 [3] = molecular target: T1, Aβ42; experiment: Competition ELISA: binding of biotinylated Aβ42 to immobilized cyclic C44; conditions: competitor pre-incubated with biotinylated Aβ42 overnight at 4° C., N44 linear
# Method: For competition ELISA, cyclic C44 and linear N44 were diluted in PBS/1% BSA and incubated with biotinylated Aβ42 overnight at 4° C. prior to addition to plates coated with cyclic C44.
# [4] = system: rat cultured hippocampal neurons; experiment: Neuroprotection assay, Aβ42-induced neurotoxicity, MTT reduction
# Method: (§2) Primary cultures of hippocampal neurons were prepared from 17-18 day gestational Wistar rat embryos as described previously (Brewer et al., 1993) with some modifications (Massieu et al., 2003). Briefly, after dissection, 10-12 hippocampi were chopped into 300-μm cubes, incubated in a 0.25% trypsin solution, and dispersed by trituration in a 0.08% DNAase and 0.52% soybean trypsin inhibitor containing solution. Cells were suspended in Neurobasal culture medium (GIBCO/Life technologies, Rockville Md., USA) (Brewer et al. 1993) supplemented with B27 (Minus AO GIBCO/life technologies, Rockville, Md., USA), 0.5 mM L-glutamine, 20 μg/ml gentamicin, and 0.2 mM glutamate, and plated at a density of 260-290×10^3/cm^2 in Costar 48-well plates (Cambridge, Mass., USA), precoated with poly-L-lysine (5 μg/ml). Cells were cultured for 6 days in vitro (DIV) at 37° C. in a humidified 5% CO2/95% air atmosphere. Glucose (5 mM) and cytosine arabinoside (10 μM) were added to cultures 4 days after plating.
# (§3) The effect of individual treatments of the different peptides on cell viability was also tested. Aβ42 was pre-incubated at 37° C. during 48 h to promote its aggregation and increase neurotoxicity. Cell viability was assessed by the MTT (3-(4,5-dimethylthiazol-2-yl)-2,5-diphenyltetrazolium bromide) dye reduction assay (Mosmann, 1983) as previously described (Garcia and Massieu, 2001). The assay is based on the ability of living mitochondria to convert MTT into insoluble formazan by active dehydrogenases.
# (§4) In brief, 72 h after exposure to Aβ42, cell cultures were incubated with MTT (150 μM) during a 1 h period at 37° C. in a 5% CO2/95% O2-containing atmosphere. The medium was aspirated, and the precipitated formazan was solubilized with 0.480 ml isopropanol. After solubilization, isopropanol was transferred to eppendorf tubes, centrifuged (18 000 rpm for 30 s) and the optical density in the supernatant measured at 570 nm in a spectrofluorometer (Beckman DU-640). Cell damage was expressed as percent reduction in mitochondrial activity relative to control cultures. Data were expressed as means±SE (standard error) of 4 independent experiments.
# [5] = system: rat cultured hippocampal neurons
# Method: as §2, §3, §4
# human Aβ42 (wild-type) = molecular target: T2, human Aβ42 (wild-type) (Homo sapiens, UniProt P05067); experiment: ELISA binding of phage-displayed scFv / serum to Aβ42-coated wells; conditions: control wild type phage M13
# T2 construct: coated overnight with 2 μg/ml of wild-type Aβ42 (BACHEM Bioscience Inc); purchased BACHEM Bioscience Inc
# Method: One week after the fourth immunization, mouse sera were tested in ELISA for the presence of specific anti-Aβ42 antibodies. Briefly, a 96-well plate (Nunc, Roskilde, Denmark) was coated with 1 μg/ml of Aβ42 in phosphate buffer (pH 7.8) overnight at 4° C. The plate was washed with phosphate buffer containing 0.1% Tween-20 (PBS-Tween) and blocked with PBS containing 2% bovine serum albumin (PBS-BSA). After washing, mouse sera diluted in PBS-BSA 1% was added, and the plate was incubated for 1 h at 37° C. The plate was washed and goat anti-mouse IgG conjugated with HRP (Zymed, San Francisco, Calif., USA) was added. After incubation for 1 h at 37° C., the plate was washed and 2,2′-azino-bis-(3-ethyl-benzothiazoline-6-sulphonic acid (ABTS) single solution (Zymed) was added. The OD reading at 405 was registered using Opsys MR Microplate Reader (DYNEX Technologies, Chantilly, Va., USA).
# Fresh 2×YT without glucose but supplemented with ampicillin and kanamycin was added to each well, and plates were incubated overnight at 30° C. with shaking Microtiter plates (Nunc) were coated with Aβ and blocked as described above, supernatants from plates containing phage were added, and after incubation for 1 h at 37° C., plates were washed with PBS-Tween. […] The OD reading at 405 was registered using Opsys MR Microplate Reader (DYNEX Technologies). […]
# [6] = molecular target: T3, Flemish (A21G) mutant Aβ42 (Homo sapiens, UniProt P05067, A692G); experiment: ELISA binding of phage-displayed scFv to Flemish mutant Aβ42; conditions: control wild type phage M13
# T3 construct: mutant Aβ42 (SynPep Corp., CA, USA); purchased SynPep Corp
# Method: (§1) Microtiter plates were coated with Aβ42 and blocked as described above, 10^10 of each phage clone were added, and after incubation for 1 h at 37° C., plates were washed with PBS/Tween. An anti-M13 monoclonal HRP (horseradish peroxidase) conjugate (Amersham Pharmacia Biotech, USA) diluted in PBS/1% BSA was then added to the plates followed by an incubation for 1 h 37° C. Plates were washed and the ABTS (2,2′-azino-bis(3-ethylbenzothiazoline-6-sulfonic acid) single solution (Zymed, San Francisco, Calif., USA) was added. The OD 405 nm readings were measured using Opsys MR Microplate Reader (DYNEX Technologies, Inc., Chantilly, Va., USA). An identical ELISA procedure was performed using Flemish (containing an A to G substitution at aa21; i.e. A21G) and Dutch (containing an E to Q substitution at aa22; E22Q) mutant Aβ42 (SynPep Corp., CA, USA).
# Dutch (E22Q) mutant Aβ42 = molecular target: T4, Dutch (E22Q) mutant Aβ42 (Homo sapiens, UniProt P05067, E693Q); experiment: ELISA binding of phage-displayed scFv to Dutch mutant Aβ42; conditions: control wild type phage M13
# T4 construct: mutant Aβ42 (SynPep Corp., CA, USA); purchased SynPep Corp
# Method: as §1
# Aβ1-28 = Aβ1-28 (Homo sapiens, UniProt P05067); experiment: ELISA binding of phage-displayed scFv to Aβ1-28; conditions: control wild type phage M13
# [7] = plates coated with peptide 10 μg/ml
# [8] = peptide in cyclic form, 40 μM with Aβ42 40 μM, 72 h
# [9] = peptide in linear form, 40 μM with Aβ42 40 μM, 72 h
molecule,measurement,setting,value
CC[C@H](C)C(=O)O[C@H]1C[C@@H](C)C=C2C=C[C@H](C)[C@H](CC[C@@H]3C[C@@H](O)CC(=O)O3)[C@H]21 [lovastatin],intracellular and extracellular levels of Aβ,[1],reduce
"CADWRYRSVFGPVSVAC (disulfide 1-17 (inferred)) [Scr44, reference compound]","OD405, binding of biotinylated Aβ42 to coated peptide","Aβ42 [2]; peptide in cyclic form, negative control",0.25±0.03
same,binding to Aβ42 in ELISA,Aβ42 [2]; [7],did not bind
CASVRGWYVRSVFDPAC (cyclic or linear) [C44],binding to Aβ42 in ELISA,"Aβ42 [2]; cyclic peptide, S—S bond reduced with β-mercaptoethanol",abolished completely
same,binding to Aβ42 in ELISA,"Aβ42 [2]; linear form after spontaneous air oxidation, overnight agitation",restored
same,binding to Aβ42 in ELISA,Aβ42 [2]; peptide in cyclic form,recognized
same,binding to Aβ42 in ELISA,Aβ42 [2]; peptide in its linear form,weak recognition
same,inhibition of binding of Aβ42 to immobilized cyclic C44,Aβ42 [3],"inhibited, in a dose dependent manner"
same,effect of peptide alone on basal MTT reducing capacity,"[4]; peptide alone, without Aβ42",Neither N44 nor C44 (either the linear or cyclic forms) alone altered basal MTT reducing capacity
same,neuroprotective effect,[4]; peptide in cyclic form,53.6%
same,decrease in mitochondrial activity when co-incubated with Aβ42,[4]; [8],11.9%
same,protection against Aβ42 neurotoxicity,[4]; [8],showed protection
same,neuroprotective effect,[4]; peptide in linear form,69.3%
same,prevention of Aβ42 neurotoxicity,[4]; [9],significantly prevented
same,reduction in mitochondrial activity when co-incubated with Aβ42,[4]; [9],7.7%
"IWGCSGKLICTTAVP (not fully specified (bridges); also: cyclic, ring type not given here) [GM15, reference compound]",binding to Aβ42 in ELISA,Aβ42 [2]; [7],did not bind
ASVRGWYVRSVFDPA [N44],effect of peptide alone on basal MTT reducing capacity,[5],Neither N44 nor C44 (either the linear or cyclic forms) alone altered basal MTT reducing capacity
"Aβ42: human amyloid-beta peptide, pre-aggregated, used as neurotoxic insult [reference compound]",decrease in mitochondrial activity,"[4]; Aβ42 40 μM alone, 72 h",24.3%
"b4.6: phage-displayed human anti-Aβ42 scFv, SEQ ID NO:12, HCDR3 SHYWDS (protein) scFv: QVQLQESGPGLVKPSETLSLTCSVSGGSVSSGNYYWTWIRQPPGKGLEWIGYIYSSGSTSYNPSLMSRVTISLDMSKNQFSLRLTSVTAADTAVYYCARSHYWDSWSPGTLVTVSSGGGGSGGGGSGGGGSDIVMTQSPSSMSASVGDTVTIACRASRDIRNDLAWYQQKPGKAPKLLIYAASRLQSGVPSRFSGSGSFTDFTLTIQLCLQPDDFATYYCLQDSDYPLTFGGGTKLEIKR",binding to wild type Aβ42 in ELISA,human Aβ42 (wild-type),bound
same,binding to Flemish mutant Aβ42 in ELISA,[6],bound
same,binding to Dutch mutant Aβ42 in ELISA,Dutch (E22Q) mutant Aβ42,not statistically different from control phage M13
same,binding to Aβ1-28 in ELISA,Aβ1-28,not statistically different from control phage M13

# — patent US8394380B2, “Compositions and methods for alzheimer's disease” (Primex Clinical Laboratories, Inc., priority 2004, dated 2013)
